# Measurements from the supplement of paper PMC10126150.
# ± gives the standard deviation of the averaged measurements.
# Tested on: ATP
# Test: switch fluorescence ratio, 500 uM ATP over buffer (Cy3 cluster intensity, sum of 5 cycles each) (fold (ratio)); higher = stronger signal-on switching upon ATP binding; sequences stand for … in TCGTCGGCAGCGTCAGATGTGTATAAGAGACAGTTTTTTTTTTTTTTTTTTTTTTTTT…TC
# Details: aptamer strand: ATP DNA aptamer (quencher-CACCTGGGGGAGTATTGCGGAGGAAGG + anchor), 100 nM annealed; ATP concentration: 500 uM
# Outline: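 Per cluster, summed Cy3 intensity from the target cycles was divided by that from the buffer cycles to give the fluorescence ratio, then averaged per switch-domain sequence. Clusters outside 100-1000 RFU were excluded. The Cy3-labelled switching-strand clusters, on a modified Illumina MiSeq flow-cell, were annealed to 100 nM quencher-labelled ATP aptamer and imaged in selection buffer, then after 15 min with 500 uM ATP at 22 °C, for five cycles with NaOH stripping and re-annealing between them.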
# 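Note: ATP exposure 15 min at 22 °C before imaging.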
row,Sequence,switch fluorescence ratio
1,TGTGTATTCC,1.05 ± 0.037
2,CCTAATGGGC,1.014 ± 0.0092
3,GTGTAAGATG,1.0023 ± 0.0005
4,ATTGTTTTGA,0.9818 ± 0.0088
5,AACATTGGGG,1.02 ± 0.024
6,ATTCGGGCCA,1.01 ± 0.037
7,CAATGGCCGG,1.02 ± 0.028
8,TTATGGGGGT,1.01 ± 0.03
9,AAGTTTGTTT,0.99 ± 0.028
10,TTACGTGTGA,1.05 ± 0.073
11,AACGCTGGCG,0.966 ± 0.028
12,ATTATGATGC,0.992 ± 0.014
13,AGTAGTTGGC,1.01 ± 0.12
14,GGGGGGGAAA,0.99 ± 0.035
15,GCCTACAACA,1.02 ± 0.029
16,AATTTTATGG,1.01 ± 0.022
17,GGGATGTGCT,0.957 ± 0.012
18,ATTAAATGGC,1.02 ± 0.012
19,TTAAGGGAGG,0.992 ± 0.03
20,TTTATTGTGC,1.03 ± 0.054
21,CAACGTGTGG,1.04 ± 0.072
22,TGGGTTACTA,1.002 ± 0.0097
23,TCGAGGTATA,2.94 ± 2.6
24,AGAGCATTTG,1.01 ± 0.058
25,CTTGGTCTGA,0.994 ± 0.024
26,TAATGGGGCC,1.057 ± 0.005

row,Sequence,switch fluorescence ratio
1,GCTGAGCGGA,0.995 ± 0.035
2,GCTATTTTTG,0.999 ± 0.04
3,TGTTGGGTGC,0.996 ± 0.037
4,AATAATGCAA,1.07 ± 0.022
5,GTAATAGGAG,1.02 ± 0.039
6,TTGAGGTACT,0.971 ± 0.052
7,TGGCGAAGTT,0.997 ± 0.024
8,ATTCACAGTT,1.03 ± 0.033
9,TATTTTTGCC,1.001 ± 0.0031
10,CGGCACGTGG,0.998 ± 0.021
11,TAGGAATGTT,0.9659 ± 0.0022
12,TTCATTTTGA,0.967 ± 0.015
13,TAAGAGGAGA,0.987 ± 0.017
14,GGAGTTGAGG,0.98147 ± 0.00093
15,ATGAGGGCAG,0.993 ± 0.018
16,AGCCGGTTCC,1.014 ± 0.0092
17,TTAATGTTTG,0.997 ± 0.042
18,GTCGGGGTAT,0.991 ± 0.012
19,CGGGGGGGGC,1.02 ± 0.044
20,ACGTTTGTTT,0.971 ± 0.049
21,ATGTGGAAGT,0.97 ± 0.043
22,TTTTTTCTTG,1.02 ± 0.034
23,GGCCTGGGAC,1.01 ± 0.027
24,GTGGGTTATT,0.999 ± 0.016
25,TGGTTGGGGC,0.986 ± 0.023
26,GGCGAAAGGG,1.02 ± 0.026

row,Sequence,switch fluorescence ratio
1,GTTAGTATAT,1 ± 0.018
2,AAGGGAAACA,1.04 ± 0.072
3,GGATGGGATG,0.989 ± 0.04
4,GCTGATTTTT,0.994 ± 0.025
5,GCGGTTCGTA,0.9699 ± 0.0018
6,TATTTAATCA,1.008 ± 0.0097
7,CGGTTGGGTG,0.97348 ± 6.3e-05
8,TTTAACAACT,1.01 ± 0.017
9,ATGTGCTCTC,0.9817 ± 0.0082
10,GAAAGGGGTA,1.01 ± 0.046
11,GGGTCTCCAT,1.02 ± 0.03
12,ATCAGGTTCT,1.028 ± 0.0031
13,CCGATACGGT,1.08 ± 0.034
14,CTAACCGGTA,1.006 ± 0.0063
15,ATAGCTCTTA,0.9764 ± 0.0074
16,CCGAACTGGT,1.1 ± 0.05
17,CGGGGCTAGC,1.02 ± 0.026
18,GTTCTTGTAA,1.017 ± 0.0088
19,TTTTAACTTC,1 ± 0.014
20,TTTTTCGGCT,0.985 ± 0.044
21,GATTAGGGGA,1.01 ± 0.015
22,GAGGGGGAAA,1.02 ± 0.031
23,TTGCCGCTGT,1.18 ± 0.22
24,CGCTGTGACT,1.02 ± 0.031
25,TGCAACGGGT,1.02 ± 0.018
26,ATGTTAGTCG,1.01 ± 0.014

row,Sequence,switch fluorescence ratio
1,AGTCGTGTCT,0.967 ± 0.012
2,CTATGAATTT,0.995 ± 0.011
3,TTGACGAGTT,1.06 ± 0.081
4,AAATGAGCGG,0.9824 ± 0.0046
5,AGCGCCTTTG,0.9905 ± 0.0024
6,AAGTGTTTT,1.016 ± 0.005
7,CGTTCAACTC,1.04 ± 0.016
8,AGATATTGGG,0.992 ± 0.068
9,TGTGTAAGGC,1.03 ± 0.038
10,CGGAAACATT,1.04 ± 0.039
11,GACGTGTAGT,1.02 ± 0.025
12,GAAGGTGTGC,1.07 ± 0.1
13,TTTGGCATTA,1.09 ± 0.1
14,TTTCTTGGGC,1.007 ± 0.0018
15,TATTAGGCAT,1.15 ± 0.23
16,CTATTTTTAG,0.9968 ± 0.0021
17,TAGAAGTGCG,1.01 ± 0.041
18,ATGATGGGTG,1.01 ± 0.02
19,CGCTCGGTTA,0.956 ± 0.031
20,AATAGAGGGG,0.9926 ± 0.0071
21,TATAATCGA,1.03 ± 0.067
22,ATATAGAGG,1.02 ± 0.019
23,AGGGGTATCG,1 ± 0.029
24,TTGACGACAC,1.67 ± 0.45
25,GCCTGAGCTG,1.024 ± 0.0094
26,TAAACGCCTC,1.08 ± 0.058

row,Sequence,switch fluorescence ratio
1,GGATCGCGAA,0.978 ± 0.011
2,GGATTGCCGA,1.01 ± 0.043
3,ACAAGTGATC,1.076 ± 0.0017
4,CTGACGTTTT,1.18 ± 0.2
5,GCTAACCGGG,1 ± 0.0097
6,TCCGTTGGCT,1.07 ± 0.062
7,GAGGTACGCG,1.026 ± 0.0062
8,TTGTGTATGC,0.958 ± 0.1
9,TTTCCCTGGT,1.12 ± 0.11
10,TACTAGGCTG,0.992 ± 0.081
11,TTTAACGTCA,1.05 ± 0.023
12,CGCTGAGTTT,0.993 ± 0.021
13,TGGATCACTT,1.01 ± 0.028
14,ATATGCGAAC,1.1 ± 0.035
15,GAGAGGTTTG,0.9818 ± 0.008
16,GGTGGGCTAA,0.9827 ± 0.0057
17,CGGCTAGTCT,0.993 ± 0.13
18,CCTTAGGGGG,1.24 ± 0.33
19,CCCATGGACT,1.034 ± 0.0088
20,ACATTTGGGA,0.964 ± 0.026
21,GGTTGAAGGG,1.014 ± 0.0091
22,ACTTCTAACT,1.07 ± 0.034
23,TCGTAAAATT,0.986 ± 0.026
24,GGGGTGGCGC,0.964 ± 0.036
25,GATCCAAGGG,1.01 ± 0.021
26,AAAAGGTTGG,0.997 ± 0.015

row,Sequence,switch fluorescence ratio
1,AAGTTTTTTT,1 ± 0.025
2,TTTAATTTAT,1.09 ± 0.12
3,CATGTTCGGG,0.971 ± 0.012
4,GGTGGAACAG,1.02 ± 0.028
5,AAACGCGTTG,0.9955 ± 0.0011
6,ATGGTTTGTA,0.9744 ± 0.0088
7,TTGCAAGTTG,1.01 ± 0.021
8,TTACTGAACT,1.19 ± 0.025
9,CTTGGGCCCT,0.979 ± 0.033
10,CAGTGTGAAT,1 ± 0.021
11,AGGGTGGGTA,0.9768 ± 0.0053
12,ATCGGATGGC,1.06 ± 0.02
13,GTTTTGCGTT,0.988 ± 0.028
14,GATGAACGTT,0.984 ± 0.041
15,TTGCACCCGT,1.04 ± 0.053
16,ATTTGCCCGA,1 ± 0.012
17,TAAAGTCCGA,1.014 ± 0.0028
18,CTAAGAGGAC,0.9921 ± 0.0033
19,TAAAGCATTA,1.04 ± 0.025
20,TTCCCTGAGA,0.977 ± 0.025
21,GCATGCTGGG,1.04 ± 0.0064
22,AGATTGTTGG,0.989 ± 0.019
23,TAGTTGCTCA,0.993 ± 0.046
